Test results from patent publication US20060068386A1, “Complete genome and protein sequence of the hyperthermophile methanopyrus kandleri av19 and monophyly of archael methanogens and methods of use thereof” (priority 2002, published 2006).
Like-named read-outs stand apart in the source and are kept apart here.

Columns and labels:
[1] = target: M.K. polB DNA polymerase (Methanopyrus kandleri, UniProt Q8TWJ5); assay: Effects of media components on M.K. polB DNA polymerase activity (primer extension); format: biochemical
Experimental: (§1) DNA polymerase reaction mixtures (15-20 μl) contained dATP, dTTP, dCTP, and dGTP (1 mM each), 4.5 mM MgCl2, detergents Tween 20 and Nonidet P-40 (0.2% each), fixed concentrations of PTJ—duplex, other additions, as indicated, and appropriate amounts of polB in 30 mM Tris-HCl buffer pH 8.0 (25° C.). The background reaction mixtures contained all components except DNA polymerases. Primer extensions were carried out for a preset time at 75° C. in PTC-150 Minicycler (MJ Research, Inc.; Waltham, Mass.). 5 μl samples were removed and chilled to 4° C. followed by immediate addition of 20 μl of 20 mM EDTA. The samples were desalted by centrifugation through Sephadex G-50 spun columns, diluted, and analyzed on a ABI Prism 377 DNA sequencer (Applied BioSystems; Foster City, Calif.). For each sample, raw data were extracted from the sequencer trace files with the program Chromas 1.5 (Technelysium Pty Ltd., Australia), and the fluorescent signals were analyzed by our nonlinear regression data analysis programs written in Fortran. The programs applied Powell algorithms to approximate the signals by a number of Gaussian peaks and calculate integral fluorescent intensities for each product peak. The total amount of fluorescent products for each time of incubation was determined, and the initial rates of extension were calculated.
(§2) The next two tables (Table 4 and 5) display effects of various media components on M.K. polB DNA polymerase activity. Initial rates of primer extension reaction were measured as described by Pavlov et al., 2002.

[2] = system: DNA duplex of FIG. 16 (PTJ); assay: Initial rates of primer extension reactions in salts (inhibition of polymerases and chimeras by NaCl, KCl, K-Glu); format: biochemical
Experimental: The polymerase activities of the four chimeras were tested by measuring initial rates of primer extension reactions. The reactions were carried out at low concentrations of substrate, when the initial rates were proportional both to total protein and PTJ concentrations. When [PTJ] is much less than Kmapp, the initial rate is determined as in Equation 1: v1=kapp/Kmapp*[Et]*[PTJ]1 Eq. 1 • where Kmapp and kapp are apparent Michaelis and catalytic constants, respectively.
The concentrations of sodium chloride (NaCl), potassium chloride (KCl) and potassium glutamate (K-Glu) were varied to assess inhibition of the Stoffel fragment and KlenTaq, and the four chimeras by salts, and to estimate the effects of the HhH domains.
Experimental values of initial polymerization rates were analyzed by nonlinear regression analysis using Equation 2: [formula] where v and v0 are initial primer extension rates with and without salt, respectively, Ki is the apparent inhibition constant; and α is the cooperativity parameter.
In Table 2, to take into account the activation of Pfu polymerase and the PfuC2 hybrid by KGlu (data entries marked with an asterisk (*), the experimental values of initial polymerization rates were analyzed by nonlinear regression using the Equation 3: [formula]
where v and v0 are initial primer extension rates with and without salt, respectively; Ki is an apparent inhibition constant, α is a parameter of cooperativity, β and γ are parameters of activation. Since γ≅2, it is likely that two ions of Glu^− bind to the Pfu polymerase catalytic domain without inhibiting the polymerase activity.

[3] = system: polB DNA polymerase; assay: Thermostability of polB DNA polymerase in various media; format: biochemical, Methanopyrus kandleri; conditions: 1 M Betaine, potassium glutamate, 100° C.
Experimental: To determine DNA polymerase activity and thermostability of DNA polymerase polB in various media. Proteins in 25 μl of 20 mM Tris-HCl buffer (pH 8.0 at 25° C.) containing indicated concentrations of salts and betaine were incubated in PTC-150 Minicycler (MJ Research) at 95° C. or 100° C. 4 μl samples were removed at defined times of incubation and assayed for primer extension activity.
The stabilizing effect of betaine is diminished in the presence of organic solvents DMSO and formamide.

[4] = system: Mka PolB 3'-5' exonuclease activity; assay: Effect of salts on 3'-5' exonuclease activity of Mka PolB; format: biochemical, Methanopyrus kandleri
Experimental: (§3) A 3′→5′ exonuclease activity of polB polymerase was measured at the same conditions as in the primer extension assay, except omitting dideoxynucleotides. A fluorescent primer:
Conclusions: • 1. KGlu inhibits the 3′-5′ exonuclease activity of Mka PolB, while NaCl stimulates it. • 2. KGlu, diphosphoglycerate, and Mka PCNA (see below) increase the polymerase activity of PolB. • 3.

[5] = system: fluorescent duplex substrate containing a primer-template junction (PTJ); assay: Primer extension assay of PolB DNA polymerase activity; format: biochemical
Experimental: A primer extension assay was applied with a fluorescent duplex substrate containing a primer-template junction (PTJ). The duplex shown in FIG. 18 was prepared by annealing a 5′-end labeled with fluorescein 20-nt long primer with a 40-nt long template:
as §1, §2
Table 6 illustrates the dependency of initial rates of primer extension for Duplex 2 shown in FIG. 17 on temperature of the reaction. Initial rates of primer extension reaction were measured as described by Pavlov et al., 2002.

[6] = system: fluorescent duplex substrate containing a primer-template junction (PTJ); assay: as above; format: biochemical; remark: listed apart in the source
[7] = system: fluorescent primer *FL-GTAATACGACTCACTATAGGG; assay: 3'→5' exonuclease activity of polB; format: biochemical
Experimental: as §3
was incubated with the enzyme at defined times. Then, the amounts of formed products were calculated, and the initial rates of hydrolysis were found, as in case of primer extension. It is interesting that polB was able to cleave off only 9 nucleotides of the primer, that is, the […] primer was the shortest substrate that polB could process.

[8] = target: T1, M. kandleri AV19 PCNA (MK1030), DNA polymerase sliding clamp
T1 chain: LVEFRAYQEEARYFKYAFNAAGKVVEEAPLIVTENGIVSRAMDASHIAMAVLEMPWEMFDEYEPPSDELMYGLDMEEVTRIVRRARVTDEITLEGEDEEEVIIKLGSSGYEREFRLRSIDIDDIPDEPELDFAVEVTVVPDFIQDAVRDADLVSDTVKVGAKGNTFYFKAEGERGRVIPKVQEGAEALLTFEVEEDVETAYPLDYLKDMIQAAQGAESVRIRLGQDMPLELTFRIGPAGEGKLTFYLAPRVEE

Chain of M.K. polB DNA polymerase (Q8TWJ5 entry or part of it): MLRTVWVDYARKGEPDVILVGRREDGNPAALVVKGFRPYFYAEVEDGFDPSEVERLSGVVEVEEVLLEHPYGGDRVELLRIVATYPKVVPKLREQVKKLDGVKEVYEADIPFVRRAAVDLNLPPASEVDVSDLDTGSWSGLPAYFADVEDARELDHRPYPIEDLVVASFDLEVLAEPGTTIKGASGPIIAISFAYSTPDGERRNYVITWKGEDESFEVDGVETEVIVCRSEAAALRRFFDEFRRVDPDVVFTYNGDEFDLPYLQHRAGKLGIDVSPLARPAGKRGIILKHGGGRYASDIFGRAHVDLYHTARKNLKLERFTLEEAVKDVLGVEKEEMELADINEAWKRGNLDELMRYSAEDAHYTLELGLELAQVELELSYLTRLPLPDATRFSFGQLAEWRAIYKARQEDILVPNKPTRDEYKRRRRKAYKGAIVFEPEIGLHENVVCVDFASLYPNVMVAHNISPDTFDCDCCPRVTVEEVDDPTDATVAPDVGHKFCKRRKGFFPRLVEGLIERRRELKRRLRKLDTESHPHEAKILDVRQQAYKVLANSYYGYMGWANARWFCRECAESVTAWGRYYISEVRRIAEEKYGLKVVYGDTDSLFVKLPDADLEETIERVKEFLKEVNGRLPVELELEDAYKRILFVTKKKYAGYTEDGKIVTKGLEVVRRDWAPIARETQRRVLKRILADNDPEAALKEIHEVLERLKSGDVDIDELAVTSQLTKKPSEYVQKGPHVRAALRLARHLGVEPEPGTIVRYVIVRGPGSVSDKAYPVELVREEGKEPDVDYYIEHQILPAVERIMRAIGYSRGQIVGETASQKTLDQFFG

O=C(O)[C@@H](COP(=O)(O)O)OP(=O)(O)O [diphosphoglycerate]
effect on polymerase activity of PolB [1]: increase

Taq Polymerase: DNA polymerase from Thermus aquaticus [reference compound]
increase of Ki on substituting KCl with KGlu ([2]; KGlu versus KCl): 4 fold | NaCl concentration at which 20% inhibition of primer extension reaction occurs ([2]; NaCl): about 90 mM

C[N+](C)(C)CC(=O)O [Betaine]
effect on thermostability of polB DNA polymerase [3]: stabilize specifically polB DNA polymerase

N [NH4OH]
IC50 ([1]; M.K. polB DNA polymerase activity, primer extension, read-out: IC50 (Inhibition constants in different media)): < 30 mM

N[C@@H](CCC(=O)[O-])C(=O)[O-].[K+].[K+] [KGlu, potassium glutamate]
effect on polymerase activity of PolB [1]: increase | increase of polymerase activity of polB ([1]; 0.8 M of the salt): about twenty-fold | effect on 3'-5' exonuclease activity of Mka PolB [4]: inhibits

[Cl-].[Na+] [NaCl, sodium chloride]
effect on 3'-5' exonuclease activity of Mka PolB [4]: stimulates

B1: Pfu polymerase: whole size Pfu polymerase (protein, UniProt P61875 1-775, looked up)
chain: MILDVDYITEEGKPVIRLFKKENGKFKIEHDRTFRPYIYALLRDDSKIEEVKKITGERHGKIVRIVDVEKVEKKFLGKPITVWKLYLEHPQDVPTIREKVREHPAVVDIFEYDIPFAKRYLIDKGLIPMEGEEELKILAFDIETLYHEGEEFGKGPIIMISYADENEAKVITWKNIDLPYVEVVSSEREMIKRFLRIIREKDPDIIVTYNGDSFDFPYLAKRAEKLGIKLTIGRDGSEPKMQRIGDMTAVEVKGRIHFDLYHVITRTINLPTYTLEAVYEAIFGKPKEKVYADEIAKAWESGENLERVAKYSMEDAKATYELGKEFLPMEIQLSRLVGQPLWDVSRSSTGNLVEWFLLRKAYERNEVAPNKPSEEEYQRRLRESYTGGFVKEPEKGLWENIVYLDFRALYPSIIITHNVSPDTLNLEGCKNYDIAPQVGHKFCKDIPGFIPSLLGHLLEERQKIKTKMKETQDPIEKILLDYRQKAIKLLANSFYGYYGYAKARWYCKECAESVTAWGRKYIELVWKELEEKFGFKVLYIDTDGLYATIPGGESEEIKKKALEFVKYINSKLPGLLELEYEGFYKRGFFVTKKRYAVIDEEGKVITRGLEIVRRDWSEIAKETQARVLETILKHGDVEEAVRIVKEVIQKLANYEIPPEKLAIYEQITRPLHEYKAIGPHVAVAKKLAAKGVKIKPGMVIGYIVLRGDGPISNRAILAEEYDPKKHKYDAEYYIENQVLPAVLRILEGFGYRKEDLRYQKTRQVGLTSWLNIKKS
modifications: full-length
Ki ([2]; inhibition by KCl, read-out: Ki (KCl), apparent inhibition constant): 42.6 ± 1 mM | Ki ([2]; inhibition by NaCl, nonlinear regression Eq. 2, read-out: Ki (NaCl), apparent inhibition constant): 51.5 ± 1 mM

B2: M. kandleri AV19 DNA polymerase family B (Mka PolB) (MK1039) (protein)
chain: LLRTVWVDYARKGEPDVILVGRREDGNPAALVVKGFRPYFYAEVEDGFDPSEVERLSGVVEVEEVLLEHPYGGDRVELLRIVATYPKVVPKLREQVKKLDGVKEVYEADIPFVRRAAVDLNLPPASEVDVSDLDTGSWSGLPAYFADVEDARELDHRPYPIEDLVVASFDLEVLAEPGTTIKGASGPIIAISFAYSTPDGERRNYVITWKGEDESFEVDGVETEVIVCRSEAAALRRFFDEFRRVDPDVVFTYNGDEFDLPYLQHRAGKLGIDVSPLARPAGKRGIILKHGGGRYASDIFGRAHVDLYHTARKNLKLERFTLEEAVKDVLGVEKEEMELADINEAWKRGNLDELMRYSAEDAHYTLELGLELAQVELELSYLTRLPLPDATRFSFGQLAEWRAIYKARQEDILVPNKPTRDEYKRRRRKAYKGAIVFEPEIGLHENVVCVDFASLYPNVMVAHNISPDTFDCDCCPRVTVEEVDDPTDATVAPDVGHKFCKRRKGFFPRLVEGLIERRRELKRRLRKLDTESHPHEAKILDVRQQAYKVLANSYYGYMGWANARWFCRECAESVTAWGRYYISEVRRIAEEKYGLKVVYGDTDSLFVKLPDADLEETIERVKEFLKEVNGRLPVELELEDAYKRILFVTKKKYAGYTEDGKIVTKGLEVVRRDWAPIARETQRRVLKRILADNDPEAALKEIHEVLERLKSGDVDIDELAVTSQLTKKPSEYVQKGPHVRAALRLARHLGVEPEPGTIVRYVIVRGPGSVSDKAYPVELVREEGKEPDVDYYIEHQILPAVERIMRAIGYSRGQIVGETASQKTLDQFFG
use of dUTP for primer extensions [5]: can use dUTP for primer extensions | Initial Rate of Primer Extension ([5]; 0.5 M NaCl): 0.123 ± 0.003 µM/min | Initial Rate of Primer Extension ([5]; 0.5 M NaCl + PCNA): 0.214 ± 0.014 µM/min | Initial Rate of Primer Extension ([5]; 1 M DPG): 2.17 ± 0.16 µM/min | Initial Rate of Primer Extension ([5]; 1 M KGlu): 2.74 ± 0.18 µM/min | Initial Rate of Primer Extension ([5]; 1 M KGlu, dUTP): 1.82 ± 0.09 µM/min | temperature up to which primers are extended ([5]; Duplex 2 (FIG. 17)): up to 105 °C | Initial Rate of Primer Extension ([5]; Duplex 2 (FIG. 17), 50 °C): 1.01 ± 0.06 µM/min | Initial Rate of Primer Extension ([5]; Duplex 2 (FIG. 17), 55 °C): 1.08 ± 0.09 µM/min | Initial Rate of Primer Extension ([5]; Duplex 2 (FIG. 17), 60 °C): 1.12 ± 0.08 µM/min | Initial Rate of Primer Extension ([5]; Duplex 2 (FIG. 17), 65 °C): 1.23 ± 0.05 µM/min | Initial Rate of Primer Extension ([5]; Duplex 2 (FIG. 17), 70 °C): 1.01 ± 0.07 µM/min | Initial Rate of Primer Extension ([5]; Duplex 2 (FIG. 17), 75 °C): 0.95 ± 0.07 µM/min | Initial Rate of Primer Extension ([5]; Duplex 2 (FIG. 17), 80 °C): 0.92 ± 0.07 µM/min | Initial Rate of Primer Extension ([5]; Duplex 2 (FIG. 17), 85 °C): 0.94 ± 0.07 µM/min | Initial Rate of Primer Extension ([5]; Duplex 2 (FIG. 17), 90 °C): 0.71 ± 0.05 µM/min | Initial Rate of Primer Extension ([5]; Duplex 2 (FIG. 17), 95 °C): 0.62 ± 0.04 µM/min | Initial Rate of Primer Extension ([5]; Duplex 2 (FIG. 17), 100 °C): 0.62 ± 0.06 µM/min | Initial Rate of Primer Extension ([5]; Duplex 2 (FIG. 17), 105 °C): 0.55 ± 0.09 µM/min | resistance to aggressive chemicals [6]: resistant to aggressive chemicals | nucleotides of the primer cleaved off [7]: 9 nucleotides | shortest substrate that polB could process [7]: 13 nt | hydrolysis of the primer annealed to the duplex (3'-5' exonuclease activity of polB) [8]: suppression of hydrolysis of the primer annealed to the duplex
